Laboratory results reported in publication PMC7202955 (Current biology : CB, 2020).

Target: the molecule itself
Test: cross-linking

B1: β3 TMD-tail (construct of the cross-linking experiment, Figure S5) (domain or fragment, UniProt P05106 711-788, looked up)
chain: PECPKGPDILVVLLSVMGAILLIGLAALLIWKLLITIHDRKEFAKFEEERARAKWDTANNPLYKEATSTFTNITYRGT
stoichiometry N: 2
